According to the nanobody polyreactivity screen of Harvey et al. (2022):

Assay: yeast display, Sf9 membrane polyspecificity reagent, FACS + sequencing; frameworks hold sequencing errors
Outline: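 Galactose induction of a Saccharomyces cerevisiae BJ5465 synthetic nanobody display library ran 36–48 hours. The cells were then stained for 1 hour at 4 °C with 10% biotinylated, detergent-solubilized Sf9 membrane reagent, pulled down on streptavidin microbeads and FACS-sorted into low and high (top ~1%) gates on expression and reagent-binding fluorescence. Labels for polyreactivity follow the gate of origin.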

Sequence	polyreactivity (PSR sort gate)
QVQLVESGGALVQAGGSLRLSCSASGSIFHGYIMGWYRQAPGKERELVAAITTGGSTNYADSVKGRFTISRDNAKNTVYLQMNSLKPEDTAVYDCATDPYVDPSRDYLELGGYWGQGTQVTVSS	low polyreactivity
QVQLVESGGALVQAGGSLRLTCAASGSIYYVNAMGWYRQAPGKERELVAAISVRGGRTYYADSVKGRFTISRDNAKNTFYLQMNSLKPEDTEVYYCATRISTVGRYDYWGQGTQVTVSS	high polyreactivity
QVQLVESGGALVQAGGSLRVSCAASGFIFYGYAMGWYRQAPGKERELVAAISSGGGRTYYADSVKGRFTISRDNAKNTVYLQMNSLKPEDTAVYYCAAKVYYYTGGGGEDYWGQGTQVTVSS	low polyreactivity
QVQLVESGGALVQAGGSLSLSCAASGSTYSYYAMGWYRQAPGKETEVVAAINRSGGSTYYADSVKGRFTISRDNAKYTVYLQMNSLKPEDTAVYYCAALRSKTVSYDRYDYWGQGTQVTVSS	high polyreactivity
QVQLVESGGCIVQAGGSLRLSCAASGLIFGPYAMGWYRQAPGKERELVAAISARGGSTYYADSVKGRFTISRDNAKNTVYLQMNSLKPEDTAVYYCAARQYSVNTHYGYNYWGQGTQVTVSS	high polyreactivity
QVQLVESGGCIVQAGGSLRLSCAASGRNLAPNAMGWSRQAPGKERELVAGITWSGGSTYYADSVKGRFTISRDNAKNTVYLPMNSLKPEDTAVYYCAACRSFPGYGLYYYWGQGTQVTVSS	low polyreactivity
QVQLVESGGCIVQAGGSLRLSCAAYGRIFAKYVMGWSRKAPGKERELVAAITSSGGSTYYADSVKGRFTISRDNAKNTVYVQMNSLKSEDTAVYYGAAGPSYHSSYYSWGQVTQVTVSS	high polyreactivity
QVQLVESGGCLEQAGGSLRLSCAASGFTFVSNDMGWYRQAPGKERELVAAISQGGGSTYYADSVKGRFTISRDNAKNTVYLQMNSLKPEDTAVYYCAAEDVYFGYDYWGQGTQVTVSS	low polyreactivity
QVQLVESGGCLGQAGGSLRLTCAASAFTFRHYTKGWYRQAPGKVRVLVAVITRSGGSTYYADSVKGRFTISRDNAKNTVYLQMNRLKPEDTAVYYCAARYKREYNYWGQGTQVTVSS	high polyreactivity
QVQLVESGGCLLQAGGSLRLSCAASGFTFRKNAMGWYRDAPGKERQLVAAISSGTSTYYADSVKVRFTISRDNAKNTVYLQMNSLKPEDTAVYYCAAARYRTDDYCGQGTQVTVSS	high polyreactivity
QVQLVESGGCLVPAGGSLRLSCAASGRTFYYNAMGWYRQAPGKERELVAAISSSGGRTYYADSVKGRFTISRDNGKNTVYLQMNSLKPEDTAVFYCAALTNARGFDYWGQGTQVTVSS	high polyreactivity
QVQLVESGGCLVQAGGRLRLSCAASGRIFYRYSMGWYRQAPGKERELVAAINDVGSTYYADSVKGRFTISRDNAKNTVYLQMNILKPEDTAVYYCNGVNEHQSDFVVPFDYNHWGQGTQVTVSS	low polyreactivity
QVQLVESGGCLVQAGGSIRLSCAASGSTFDINAMGWYRQAPGKERELVASITFSGGSTYYADSVKGRFTISRDNAKNTGYLQMNSLKPEDTAVYYCAADSSGEYPGGYWGQGTQVTVSS	low polyreactivity
QVQLVESGGCLVQAGGSLRFSCAASGIIFYGYAMGWYRQAPGKERELVAAISERGGSTYYADSVKGRFTISRDNAKNTVYLQMNSLKPEDTAVYYCAVDYYYLMYWGQGTQVTVSS	low polyreactivity
QVQLVESGGCLVQAGGSLRFSCAASGSTFHRYVMGWYRQAPGKERELVAVINSTGGSTYYADSVKGRYTISRDNAKNTVYLQMNSLKPEDTAVYYCARVTRRGPGYTTLYSRYDYWGQGTQVNVSS	low polyreactivity
QVQLVESGGCLVQAGGSLRLICAASGSTFLLNAMGWYRQAPGKVRELVAAITSSGRTNYADSVKGRFTISRDNAKNTVYLQMNSLKPEDTAVYYCNTRYSPGYQGTDVDYWRQGTQVTVSS	low polyreactivity
QVQLVESGGCLVQAGGSLRLICAASGSTFRRYAMGWYRQAPGKERELVATISKSGGSTYYADSVKGRFTISRDNAKNTVYLQMNSLKPEDTAVYYCAARSFFYRVSDRRAYIDTNGYWGQGTQVTVSS	high polyreactivity
QVQLVESGGCLVQAGGSLRLRCAASGRIFLRYDMGWYRQAPGKERELVAAISSGASTYYADSVKGRFTISRDNAKNTVYLQMNSLKPEDTAVFYCAVDRPYYYGYRMDYWGQGSQVTVSS	low polyreactivity
QVQLVESGGCLVQAGGSLRLRCAASGRTLRCYAMGWYRQAPGKEREFVAAISRGTVGTYYADSVKGRFTISRDNAKNTVYLQMNSLKPEDTAVYYCAADRFAYFTNLRLGYYSWGQGTQVTVSS	low polyreactivity
QVQLVESGGCLVQAGGSLRLRCAASGSTFDDNVKGWYRPAPRKDRELVAAISSSGGSTYYADSVKGRFTISRDNAKNTVYLQMNSLKPEDTAVYYCNAVYFGLWGYYSRRSYNYWGQGTQVNVSS	low polyreactivity
QVQLVESGGCLVQAGGSLRLSCAASGFIFRRYALGWNRQAPGKERELVAAISSSGGRTTYADSVKGRFTISRDNAKNTVYLQMNSLKPEDTAVYYCNADLCPGNHDGYWGQGTQVTVSS	low polyreactivity
QVQLVESGGCLVQAGGSLRLSCAASGFIFSRNAIGWYRQAHGKERELVAAISLRGGSTYYADSVKGRFTISRDYAKNTVYLQMNSLKPEDTAVYYCAAPLFSGYDYWVQGTQVTVSS	low polyreactivity

Sequence	polyreactivity (PSR sort gate)
QVQLVESGGCLVQAGGSLRLSCAASGFIFSYYALGWYRQAPGKERELVAAITWDGGSTYYADSVKGRFTISRDNAKNSVYLQMNSLKPEDTAVYYCNAYYYYRRPLEGGYWGQGTQVTVSS	low polyreactivity
QVQLVESGGCLVQAGGSLRLSCAASGFTFGPYDMGWYRQAPGKERELVAVIIGGDSTNYADSVKGRFTISRDNAKNTVYLQLNSLKPEVTAVYYCAADYIDRVGWMDYWGQGTQVTVSS	low polyreactivity
QVQLVESGGCLVQAGGSLRLSCAASGFTFSYYAMGWYRQAPGKERELVAAISSSSGTTYYADSVKRRFTISRDNANNTVYLQMNSLKPEDTAVYYCVVIARDGYDYWGQGTQVTVSS	high polyreactivity
QVQLVESGGCLVQAGGSLRLSCAASGFTLTAYAMGWYRQAPGKEREFVAAISTSGTRTYYADSVKGRFTISRDNAKITVYLQMYSLKPDDTAVYYCAARYSGYQYWKFNYWGQGTQVTVSS	high polyreactivity
QVQLVESGGCLVQAGGSLRLSCAASGGTFVTYAMGWYRQAPGKERELVAAITTGGSTYYADSVKGRFTISRDNAKNTVYLQMNSLKPEDSAVYYCAAVYTGSGKRYYKGYYWGQGTQVTVSS	low polyreactivity
QVQLVESGGCLVQAGGSLRLSCAASGIIFYQNSMGWYRQAPGKERELVAAISRSGGTTYYADSVKGRFTISRDNAKNTVYLLMNSVNPEVTAVYYCAAVGTGSGYYYWGQGTQVTVSS	high polyreactivity
QVQLVESGGCLVQAGGSLRLSCAASGITLRYYAMGWYRQAPGKERELDAAISSGGRTYYADSVKGRFTISRDNATKTVYLPLNSLKPEETAVYYCNVVWSVTYDYWGHGTQVTVSS	high polyreactivity
QVQLVESGGCLVQAGGSLRLSCAASGLTFKWNTMGWYRQAPGKESELVAAISWRVVSTYYADSVKGRFTISRDNAKNTVYLQMNSLKPEDTAVYYDYWGQGTQVTVSS	low polyreactivity
QVQLVESGGCLVQAGGSLRLSCAASGLTFSWYAMGWYRQAPGKERELVAAISTRGGRTYYADSVKGRFTISRDNAKNTVYLQMNSLKPEDTAVYYCAAGVSYRYLWLVDYWGQGTQVTVSS	high polyreactivity
QVQLVESGGCLVQAGGSLRLSCAASGNTFSTYTMGWYRQAPGKERELVAALTRSRGRTYYADSVKGRFTISRDTAKNTVYLQMNSLKPEDTAVYYCNAYTADLDDYWGQGNQVTVSS	high polyreactivity
QVQLVESGGCLVQAGGSLRLSCAASGRIFDHYAMGWYRQAPGKERELVAAITRSGGITYYADSVKGRFTISRDNAKNTVYLQMNSLKPDDTAVFYCAAYLKGNYYLGIARYVLYYWGQGTQVTVSS	low polyreactivity
QVQLVESGGCLVQAGGSLRLSCAASGRIFFYYTLGWYRQAPGKERELVAAINSTGSTNYADSVKGRFTISRDNAKNTVYLQMKSLKPEDTAVYYCNAGTRYIFLYPPFLGAAFDYWGQGTQVTVSS	low polyreactivity
QVQLVESGGCLVQAGGSLRLSCAASGRIFQGYAMAWYRQAPGKEREFVAAITLSGGSTYYADSVKGRFTISRDNAKNTVYLQMNSLKPEDTAVYYCNAYYPDEPSLDDYWGQGTQVTVSS	low polyreactivity
QVQLVESGGCLVQAGGSLRLSCAASGRIFVPNAMGWYRQAPGKERELVAAINWGGGSTYYADSVKGRFTISRDNAKNTVYLQMNSLKPEDTAVYYCAADHPYTMGVLPNQQFDYWGQGTQVTVSS	low polyreactivity
QVQLVESGGCLVQAGGSLRLSCAASGRSFDKYTMGWYRQAPGKERELVAAISTRGGSTYYADSVKGRFTISRDNAKNTVYLQMNSLKPEDTAVYYCATVPRPKAYDYWGQGTQVTVSS	high polyreactivity
QVQLVESGGCLVQAGGSLRLSCAASGRTFRSNAMGWYRQAPGKERELVAAITIGGSTTYADSVKGRFTISRDNAKNTVYLQMISLKREDSAVYYCKARDYYPYDYWGKGTQVTVSS	high polyreactivity
QVQLVESGGCLVQAGGSLRLSCAASGRTFRYYAMGWYRQAPGRERELVAAIRRAGSTTYADSVKGRFTISRDNAKNTVYLQMNSLKPEDTAVYYCIARRYGYGYALDYWGQGTQVTVSS	high polyreactivity
QVQLVESGGCLVQAGGSLRLSCAASGRTFRYYAMGWYRQAPGTERELVATITGSGGSTYYADSVKGRFTISRDNAKNTVYLQMTSLKPEDTAVYYCNARKVRYPYRWYDYWGQGTQVTVSS	high polyreactivity
QVQLVESGGCLVQAGGSLRLSCAASGSIFAAYTMGWYRQAPGKERELVAAISVSTVSTYYADSVKGRFTISRDNAKNTVYLQMNSLKPEDTAVYYCNADATDSYPEKDEHDSWGQGTQVTVSS	low polyreactivity
QVQLVESGGCLVQAGGSLRLSCAASGSIFGYYAMGWYRQAPGKERELVAAISYSGGSTYYADSVKGRFTISRDTAKNTVYLQMNSLKPEDTAVYYCNAVTSWAYWRGPRYDYWGQGTQVTVSS	high polyreactivity
QVQLVESGGCLVQAGGSLRLSCAASGSIFHPYGMGWYRQAPGKERELVAAITSSGGDTYYADSVKGRFTISRDNAKNTVYLQMNSLKPEDTAVYYCAATGLPGYYAYDYWGQGTQVTVSS	low polyreactivity
